Results as given in patent publication US20170266276A1, “Combination Therapy For Treatment of Cancer” (OncoMed Pharmaceuticals, Inc., priority 2014, published 2017).

Legend:
[1] = system: OMP-LU77 lung tumor cells; test: OMP-LU77 lung tumor xenograft model, tumor volume; type: in vivo, NOD/SCID mice
Procedure: FIG. 2. Inhibition of lung tumor growth in vivo by a RSPO-LGR pathway inhibitor in combination with a chemotherapeutic agent. OMP-LU77 lung tumor cells were injected subcutaneously into NOD/SCID mice. Mice were treated with control antibody (-▪-), paclitaxel (-▴-), a combination of paclitaxel and anti-RSPO3 antibody 131R010 (also referred to as OMP-131R10) administered the same day (-▾-), or a combination of paclitaxel plus anti-RSPO3 antibody 131R010, wherein 131R010 was administered 2 days prior to paclitaxel (-[…]-). Antibodies were dosed every three weeks at 25 mg/kg. Taxol was dosed every three weeks at 20 mg/kg. Tumor volumes were measured on the indicated days post-treatment.
(§1) OncoMed xenograft models described herein were established at OncoMed Pharmaceuticals from minimally passaged, patient-derived tumor specimens. The tumor specimens were examined by a pathologist and classified as a specific tumor type. OncoMed relies on these classifications unless further analyses are done on any specific tumor and a reclassification is deemed necessary.
Single cell suspensions of xenograft OMP-LU77 lung tumor cells (5×10^4 cells) were injected subcutaneously into NOD/SCID mice. Tumors were allowed to grow 34 days until they reached an average volume of approximately 125 mm^3. […] Tumor volumes were measured on the indicated days post-treatment.

xenograft models = test: Several xenograft models (summary of Examples 1-3); type: in vivo
[2] = system: OMP-OV19 ovarian tumor cells; test: OMP-OV19 ovarian tumor xenograft model, tumor volume; type: in vivo, NOD/SCID mice
Procedure: FIGS. 1A and 1B. Inhibition of ovarian tumor growth in vivo by a RSPO-LGR pathway inhibitor in combination with a chemotherapeutic agent. OMP-OV19 ovarian tumor cells were injected subcutaneously into NOD/SCID mice. FIG. 1A. Mice were treated with control antibody (-[…]-), paclitaxel (-▪-), a combination of paclitaxel plus anti-RSPO3 antibody 131R010 (also referred to as OMP-131R10) administered the same day (-▴-), or a combination of paclitaxel plus 131R010, wherein 131R010 was administered 2 days prior to paclitaxel (-▾-). Antibodies were dosed at 25 mg/kg and administered every other week. Paclitaxel was dosed at 20 mg/kg and administered every other week. Tumor volumes were measured on the indicated days post-treatment and shown as the mean±SEM. FIG. 1B. Tumor volumes of individual animals in the two combination treatment groups on Day 61.
OncoMed xenograft models described herein were established at OncoMed Pharmaceuticals from minimally passaged, patient-derived tumor specimens. The tumor specimens were examined by a pathologist and classified as a specific tumor type. […]
Single cell suspensions of xenograft OMP-OV19 ovarian tumor cells (1×10^5 cells) were injected subcutaneously into NOD/SCID mice. […] Tumor volumes were measured on the indicated days post-treatment and are shown as the mean±SEM in FIG. 1A.

OMP-C8 colon tumor cells = test: OMP-C8 colorectal tumor xenograft model, tumor volume; type: in vivo, NOD/SCID mice; details: for tumor growth inhibition, staggered vs same-day dosing: OMP-131R010 25 mg/kg every other week, compared with dosing on the same day
Procedure: FIGS. 3A and 3B. Inhibition of colorectal tumor growth in vivo by a RSPO-LGR pathway inhibitor in combination with chemotherapeutic agents. OMP-C8 colorectal tumor cells were injected subcutaneously into NOD/SCID mice. FIG. 3A. Mice were treated with control antibody (-▪-), nab-paclitaxel (ABRAXANE) (-Δ-), a combination of nab-paclitaxel and anti-RSPO3 antibody 131R010 administered the same day (-[…]-), or a combination of nab-paclitaxel plus anti-RSPO3 antibody 131R010, wherein 131R010 was administered 2 days prior to nab-paclitaxel (-▾-). Antibodies were dosed every other week at 25 mg/kg. Nab-paclitaxel was dosed once a week at 30 mg/kg. Tumor volumes were measured on the indicated days post-treatment. FIG. 3B. Mice were treated with control antibody (-▪-), 5-FU and irinotecan (-◯-), a combination of 5-FU, irinotecan, and anti-RSPO3 antibody 131R010 administered the same day (-▴-), or a combination of 5-FU and irinotecan plus anti-RSPO3 antibody 131R010, wherein 131R010 was administered 2 days prior to 5-FU and irinotecan (-⋄-). Antibodies were dosed every other week at 25 mg/kg. 5-FU and irinotecan were dosed at 50 mg/kg and 5 mg/kg, respectively, once a week. Tumor volumes were measured on the indicated days post-treatment.
as §1
Single cell suspensions of xenograft OMP-C8 colon tumor cells (5×10^4 cells) were injected subcutaneously into NOD/SCID mice. OMP-C8 colon tumor cells comprise an inactivating mutation in the APC gene and express low levels of RSPO3 (data not shown). Tumors were allowed to grow 23 days until they reached an average volume of approximately 100 mm^3. Tumor-bearing mice were randomized into four groups (n=9 animals per group). […] Tumor volumes were measured on the indicated days post-treatment.

B1: OMP-131R010: anti-RSPO3 antibody; heavy chain variable region SEQ ID NO:38, light chain variable region SEQ ID NO:39; plasmids ATCC PTA-120420 and PTA-120421 (antibody, V domains shown)
VH: QVQLVQSGAEVKKPGASVKVSCKASGYTFTDYSIHWVRQAPGQGLEWIGYIYPSNGDSGYNQKFKNRVTMTRDTSTSTAYMELSRLRSEDTAVYYCATYFANNFDYWGQGTTLTVSS
VL: DIQMTQSPSSLSASVGDRVTITCKASQSVDYDGDSYMNWYQQKPGKAPKLLIYAASNLESGVPSRFSGSGSGTDFTLTISPVQAEDFATYYCQQSNEDPLTFGAGTKLELKR
notes: anti-RSPO3 antibody; plasmids ATCC PTA-120420 and PTA-120421
- tumor growth inhibition, staggered vs same-day dosing ([1]; OMP-131R010 25 mg/kg given two days prior to paclitaxel 20 mg/kg, both once every three weeks, compared with dosing on the same day): greater tumor growth inhibition than dosing on the same day
- tumor size over the course of the treatment ([1]; staggered administration: OMP-131R010 25 mg/kg two days prior to paclitaxel 20 mg/kg, once every three weeks): decreased tumor size
- inhibition of tumor growth, staggered vs co-administration (xenograft models; OMP-131R010 administered prior to a taxane, compared with co-administration): better at inhibiting tumor growth
- inhibition of tumor growth by the combination (xenograft models; combination of OMP-131R010 and a taxane): effective at inhibiting tumor growth
- tumor size over the course of the treatment (xenograft models; staggered administration of OMP-131R010 and taxane): decreased tumor size
- tumor growth inhibition, staggered vs same-day dosing ([2]; OMP-131R010 25 mg/kg every other week, given two days prior to paclitaxel 20 mg/kg every other week, compared with dosing on the same day): greater tumor growth inhibition than dosing on the same day
- tumor size over the course of the treatment ([2]; staggered administration: OMP-131R010 25 mg/kg two days prior to paclitaxel 20 mg/kg, every other week): decreased tumor size
- tumor growth inhibition, staggered vs same-day dosing (OMP-C8 colon tumor cells; given two days prior to fluorouracil 50 mg/kg and irinotecan 5 mg/kg weekly): did not result in greater tumor growth inhibition than dosing on the same day
- tumor growth inhibition, staggered vs same-day dosing (OMP-C8 colon tumor cells; given two days prior to nab-paclitaxel 30 mg/kg weekly): greater tumor growth inhibition than dosing on the same day
- efficacy in inhibiting tumor growth, vs combination with a non-mitotic-inhibitor chemotherapeutic agent (OMP-C8 colon tumor cells; OMP-131R010 and nab-paclitaxel administered in a sequential manner, compared with OMP-131R010 plus fluorouracil and irinotecan): greater efficacy in inhibiting tumor growth
